Source: publication doi:10.1101/2022.06.04.494830, “The oncogenic fusion protein EWS-FLI1 promotes premature ageing of biomolecular condensates by catalyzing fibril formation” (bioRxiv, 2022)

Target: PU.1 DNA-binding domain (PU.1^DBD, PU.1 168-270) (human, UniProt P17947 168-270)
Experiment: NMR titration; 1H,15N-HSQC of 50 uM 15N PU.1 168-270 in 50 mM sodium phosphate pH 6.5, 25 C, titrated with unlabeled EWS^LCD (2 mM stock in 20 mM CAPS pH 11) to 12.5, 25, 50, 100 and 150 uM (~3:1)
Settings: both partners purified

B1: EWS low-complexity domain (EWS^LCD, EWS 1-264) (domain or fragment)
chain: MASTDYSTYSQAAAQQGYSAYTAQPTQGYAQTTQAYGQQSYGTYGQPTDVSYTQAQTTATYGQTAYATSYGQPPTGYTTPTAPQAYSQPVQGYGTGAYDTTTATVTTTQASYAAQSAYGTQPAYPAYGQQPAATAPTRPQDGNKPTETSQPQSSTGGYNQPSLGYGQSNYSYPQVPGSYPMQPVTAPPSYPPTSYSSTQPTSYDQSSYSQQNTYGQPSSYGQQSSYGQQSSYGQQPPTSYPPQTGSYSQAPSQYSQQSSSYGQQ
notes: In the fluorescence microscopy 1% of the EWS^LCD carried DyLight 650 or 488, attached through a dye-labelled KLPETGG peptide with sortase; also called EWS^LCD,650; EWS^LCD,488; source: E. coli BL21 Star (DE3) or BL21 (DE3) pLysS, purified (IMAC or cation exchange, TEV cleavage, SEC; 20 mM CAPS pH 11); not shown: His tag (6 or 8 x), N-terminal, cleaved
B1: binds.
